# Results taken from paper PMC6943441, “The Meta-Position of Phe^4 in Leu-Enkephalin Regulates Potency, Selectivity, Functional Activity, and Signaling Bias at the Delta and Mu Opioid Receptors” (Molecules, 2019).
# Molecular target: mu opioid receptor (Homo sapiens), P35372
# Assay: competition
# Details: modification not given
# Chain of mu opioid receptor (Homo sapiens), P35372 (P35372 whole entry): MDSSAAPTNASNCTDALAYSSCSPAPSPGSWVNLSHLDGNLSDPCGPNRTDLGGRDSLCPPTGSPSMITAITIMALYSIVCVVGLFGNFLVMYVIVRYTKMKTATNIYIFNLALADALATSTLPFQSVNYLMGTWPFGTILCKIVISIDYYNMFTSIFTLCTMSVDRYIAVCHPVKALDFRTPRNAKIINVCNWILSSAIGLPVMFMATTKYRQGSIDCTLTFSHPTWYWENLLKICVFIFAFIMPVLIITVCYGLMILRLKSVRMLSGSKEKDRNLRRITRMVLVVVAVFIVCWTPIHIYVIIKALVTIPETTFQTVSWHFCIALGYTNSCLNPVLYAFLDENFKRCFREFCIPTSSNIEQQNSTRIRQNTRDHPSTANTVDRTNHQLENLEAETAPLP
binder,measurement,value
YAGFL [DADLE],Ki,1.58 nM
